Test results: patent US20130171130A1 (ZymoGenetics, published 2013)

Experiments:
[1] = target: T1, IL-20RA (expressed alone on BHK cells) (human, UniProt Q9UHF4 30-553); assay: radiolabeled ligand binding on stably transfected BHK cells
T1 construct: BHK cells stably transfected with IL-20RA only; also called ZcytoR7; IL-20 receptor alpha chain
T1 sequence: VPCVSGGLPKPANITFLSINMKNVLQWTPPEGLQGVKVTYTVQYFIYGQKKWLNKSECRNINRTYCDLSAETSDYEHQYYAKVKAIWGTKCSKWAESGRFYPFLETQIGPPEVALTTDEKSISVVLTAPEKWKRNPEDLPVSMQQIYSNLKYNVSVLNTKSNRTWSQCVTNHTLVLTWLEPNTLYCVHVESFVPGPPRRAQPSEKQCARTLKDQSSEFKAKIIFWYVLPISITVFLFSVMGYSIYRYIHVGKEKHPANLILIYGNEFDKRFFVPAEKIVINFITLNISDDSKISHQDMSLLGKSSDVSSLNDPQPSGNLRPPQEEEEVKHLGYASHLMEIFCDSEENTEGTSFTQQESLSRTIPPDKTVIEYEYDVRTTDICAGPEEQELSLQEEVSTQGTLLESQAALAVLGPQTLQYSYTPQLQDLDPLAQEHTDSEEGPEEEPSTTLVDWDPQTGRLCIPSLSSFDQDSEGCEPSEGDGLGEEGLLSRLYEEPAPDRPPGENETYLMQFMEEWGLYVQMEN
Protocol: (§1) The specificity and affinity of IL-20 for its receptor was determined using BHK cells stably transfected with IL-20RA, IL-20RB or both receptor subunits. […] Binding of ¹²⁵I-labeled IL-20 was eliminated in the presence of 100-fold excess of unlabeled IL-20 but not with 100-fold excess of the unrelated cytokine, IL-21.

[2] = target: T2, IL-20RB (expressed alone on BHK cells) (human, UniProt Q6UXL0 30-311); assay: as above
T2 construct: BHK cells stably transfected with IL-20RB only; also called DIRS1; IL-20 receptor beta chain
T2 sequence: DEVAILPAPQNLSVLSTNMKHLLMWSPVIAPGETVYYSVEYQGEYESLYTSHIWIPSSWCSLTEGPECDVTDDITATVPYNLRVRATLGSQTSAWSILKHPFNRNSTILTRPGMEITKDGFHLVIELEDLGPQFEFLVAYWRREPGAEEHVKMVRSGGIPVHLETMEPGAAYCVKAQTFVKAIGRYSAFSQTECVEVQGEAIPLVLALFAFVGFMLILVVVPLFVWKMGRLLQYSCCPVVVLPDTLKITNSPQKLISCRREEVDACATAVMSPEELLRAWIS
Protocol: as §1

[3] = target: T3, IL-20RA/IL-20RB heterodimeric receptor (human, UniProt Q9UHF4 30-553; Q6UXL0 30-311); assay: 125I-labeled IL-20 binding on BHK cells expressing IL-20RA and IL-20RB
T3 construct: Both subunits co-expressed on transfected COS, BHK or BaF3 cells, or endogenous on HaCaT keratinocytes; also called IL-20RB/IL-20RA heterodimer; IL-20 receptor
T3 sequence 1: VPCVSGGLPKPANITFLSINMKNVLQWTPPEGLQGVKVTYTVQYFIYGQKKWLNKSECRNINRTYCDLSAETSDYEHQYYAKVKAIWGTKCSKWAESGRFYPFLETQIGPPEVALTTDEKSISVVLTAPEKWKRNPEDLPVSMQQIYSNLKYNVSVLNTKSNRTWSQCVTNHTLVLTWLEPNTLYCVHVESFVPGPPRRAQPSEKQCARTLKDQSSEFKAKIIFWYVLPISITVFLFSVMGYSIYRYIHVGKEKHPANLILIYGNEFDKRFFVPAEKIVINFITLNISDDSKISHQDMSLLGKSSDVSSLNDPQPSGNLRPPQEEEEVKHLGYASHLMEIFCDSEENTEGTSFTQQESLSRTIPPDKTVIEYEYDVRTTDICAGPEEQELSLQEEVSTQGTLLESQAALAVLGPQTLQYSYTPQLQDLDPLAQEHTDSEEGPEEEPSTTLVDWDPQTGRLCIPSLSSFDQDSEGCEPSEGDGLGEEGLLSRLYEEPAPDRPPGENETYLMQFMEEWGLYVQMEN
T3 sequence 2: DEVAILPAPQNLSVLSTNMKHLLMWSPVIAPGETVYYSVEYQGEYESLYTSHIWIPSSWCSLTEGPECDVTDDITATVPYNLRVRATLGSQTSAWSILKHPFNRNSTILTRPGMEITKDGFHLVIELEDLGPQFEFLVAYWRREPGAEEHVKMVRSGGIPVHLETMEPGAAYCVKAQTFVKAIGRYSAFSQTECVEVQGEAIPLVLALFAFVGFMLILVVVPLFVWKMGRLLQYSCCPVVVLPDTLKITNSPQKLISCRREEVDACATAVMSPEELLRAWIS
Protocol: as §1

- binding result [1]: no binding
- binding result [2]: no binding
- Kd [3]: ~1.5 nM
B1: IL-20 (Interleukin-20) (ligand, UniProt Q9NYY1 25-176, looked up)
chain: LKTLNLGSCVIATNLQEIRNGFSEIRGSVQAKDGNIDIRILRRTESLQDTKPANRCCLLRHLLRLYLDRVFKNYQTPDHYTLRKISSLANSFLTIKKDLRLCHAHMTCHCGEEAMKKYSQILSHFEKLEPQAAVVKALGELDILLQWMEETE
notes: also called Zcyto10; IL-20 protein
